This is an account of results in PMC3134637.

Where two headings read alike, the source gives them in different places.

Assay in all cases: HiTS-FLIP
In data set [1] the target is T1, 6xHis-mOrange-Gcn4p (Saccharomyces cerevisiae, UniProt P03069 1-281).
Data set [2] addresses T1, 6xHis-mOrange-Gcn4p. This is another data set of the same source.
For data set [3], the target named is T1, 6xHis-mOrange-Gcn4p. This is another data set of the same source.
The target of data set [4] is T1, 6xHis-mOrange-Gcn4p. This is another data set of the same source.
For data set [5], the target named is T1, 6xHis-mOrange-Gcn4p. This is another data set of the same source.
For data set [6], the target named is T1, 6xHis-mOrange-Gcn4p. The source holds these as a separate data set.

T1 sequence (P03069 whole entry): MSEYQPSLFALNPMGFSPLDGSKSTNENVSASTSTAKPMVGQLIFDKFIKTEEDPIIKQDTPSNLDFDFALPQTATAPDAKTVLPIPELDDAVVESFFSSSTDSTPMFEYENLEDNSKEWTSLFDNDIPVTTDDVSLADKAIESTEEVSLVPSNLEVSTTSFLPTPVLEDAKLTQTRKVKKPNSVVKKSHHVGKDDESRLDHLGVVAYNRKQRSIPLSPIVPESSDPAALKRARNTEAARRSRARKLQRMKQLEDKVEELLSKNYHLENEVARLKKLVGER

B1: 10mer TATGACTCAT (dsDNA)
DNA 1: TATGACTCAT
DNA 2: ATGAGTCATA
With B1, the binding result with 6xHis-mOrange-Gcn4p [1] is “binds”.

B2: 11mer consensus TATGACTCATA (T,A flanks) (dsDNA)
DNA 1: TATGACTCATA
DNA 2: TATGAGTCATA
On to B2, for which the binding result with 6xHis-mOrange-Gcn4p [2] is “binds”.

B3: 10mer ATGACTCATA (dsDNA)
DNA 1: ATGACTCATA
DNA 2: TATGAGTCAT
B3: in the data set with 6xHis-mOrange-Gcn4p [1], the binding result is recorded as “binds”.

B4: 11mer flanks T,C (dsDNA)
DNA 1: TATGACTCATC
DNA 2: GATGAGTCATA
For the molecule B4, the binding result in the data set with 6xHis-mOrange-Gcn4p [3] is given as “binds”.

B5: consensus 7mer TGACTCA (dsDNA)
DNA 1: TGACTCA
DNA 2: TGAGTCA
For the molecule B5, the binding result in the data set with 6xHis-mOrange-Gcn4p [4] was “binds”.

B6: adjacent half-sites ATGACGTCAT (dsDNA)
DNA 1: ATGACGTCAT
DNA 2: ATGACGTCAT
Take B6: in the data set with 6xHis-mOrange-Gcn4p [5], the binding result is reported as “binds”.

B7: 11mer flanks C,A (dsDNA)
DNA 1: CATGACTCATA
DNA 2: TATGAGTCATG
As to B7, the binding result with 6xHis-mOrange-Gcn4p [3] is given as “binds”.

B8: 9mer ATGACTCAT (dsDNA)
DNA 1: ATGACTCAT
DNA 2: ATGAGTCAT
Regarding B8, the binding result in the data set with 6xHis-mOrange-Gcn4p [6] is listed as “binds”.

B9: 11mer flanks G,A (dsDNA)
DNA 1: GATGACTCATA
DNA 2: TATGAGTCATC
For B9, the binding result in the data set with 6xHis-mOrange-Gcn4p [3] was “binds”.
